Experimental data published in patent publication US5501962, “Interleuken-3 (IL-3) human/murine hybrid polypeptides and recombinant production of the same” (G. D. Searle & Co., dated 1996).
Positions count from the first letter of the chain named.

T1: IL-3 receptor (human, UniProt P26951)
T1 sequence: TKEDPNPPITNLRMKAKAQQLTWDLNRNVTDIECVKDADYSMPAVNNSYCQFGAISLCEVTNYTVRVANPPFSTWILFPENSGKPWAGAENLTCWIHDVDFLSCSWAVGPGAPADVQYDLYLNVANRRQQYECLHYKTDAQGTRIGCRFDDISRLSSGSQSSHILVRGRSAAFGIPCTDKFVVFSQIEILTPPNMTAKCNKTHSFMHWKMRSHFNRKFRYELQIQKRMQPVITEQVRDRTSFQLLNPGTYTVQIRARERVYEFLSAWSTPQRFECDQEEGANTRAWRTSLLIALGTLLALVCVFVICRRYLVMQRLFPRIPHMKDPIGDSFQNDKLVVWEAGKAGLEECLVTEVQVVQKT

B1: pMON5972 (Met-15-125hIL-3) having an M6 substitution (ligand)
chain: MNCSNMIDEIITHLKQPPLPLLDFNNLNGEDQDILMENNFRRVNLSKFVEAVKSLQNASAIESILKNLLPCLPLATAAPTRHPIHIKDGDWNEFRRKLTFYLKTLENAQAQQ
B2: pMON5975 (Met-15-125hIL-3) having an M4 substitution (ligand)
chain: MNCSNMIDEIITHLKQPPLPLLDFNNLTDDEGPILMENNLRRPNLEAFNRAVKSLQNASAIESILKNLLPCLPLATAAPTRHPIHIKDGDWNEFRRKLTFYLKTLENAQAQQ
B3: pMON5977 (Met-15-125hIL-3) having an M3 substitution (ligand)
chain: MNCSNMIDEIITHLKQPPLPLLEPELKNGEDQDILMENNLRRPNLEAFNRAVKSLQNASAIESILKNLLPCLPLATAAPTRHPIHIKDGDWNEFRRKLTFYLKTLENAQAQQ
B4: pMON5980 (Met-Ala-15-125hIL-3) having an M1 substitution (ligand)
chain: MANCSSIVKEIIGKLPQPPLPLLDFNNLNGEDQDILMENNLRRPNLEAFNRAVKSLQNASAIESILKNLLPCLPLATAAPTRHPIHIKDGDWNEFRRKLTFYLKTLENAQAQQ
B5: (1-133)hIL-3 (ligand)
chain: APMTQTTSLKTSWVNCSNMIDEIITHLKQPPLPLLDFNNLNGEDQDILMENNLRRPNLEAFNRAVKSLQNASAIESILKNLLPCLPLATAAPTRHPIHIKDGDWNEFRRKLTFYLKTLENAQAQQTTLSLAIF
B6: pMON5979 (Met-15-125hIL-3 ALA 101) having an M8 substitution (ligand)
chain: MNCSNMIDEIITHLKQPPLPLLDFNNLNGEDQDILMENNLRRPNLEAFNRAVKSLQPEDRYVIESILKNLLPCLPLATAAPTRHPIHIKAGDWNEFRRKLTFYLKTLENAQAQQ
B7: pMON5960 (Met-15-125hIL-3) having an M11 substitution (ligand)
chain: B3 chain with E23D, P24F, E25N, L26N, K27L, P79S, T80A, R81L, H82P
B8: pMON5961 (Met-15-125hIL-3) having an M12 substitution (ligand)
chain: B3 chain with E23D, P24F, E25N, L26N, K27L, P83G, I84V, H85F, K87R
B9: pMON5962 (Met-15-125hIL-3) having an M10 substitution (ligand)
chain: B3 chain with E23D, P24F, E25N, L26N, K27L, L74T, A75S, T76A, A77N, A78D
B10: pMON5963 (Met-15-125hIL-3 Ala 101) having an M9 substitution (ligand)
chain: MNCSNMIDEIITHLKQPPLPLLDFNNLNGEDQDILMENNLRRPNLEAFNRAVKSLQNASAIKSNLQKLNSCLPLATAAPTRHPIHIKAGDWNEFRRKLTFYLKTLENAQAQQ
B11: pMON5968 (Met-15-125hIL-3) having an M13 substitution (ligand)
chain: MNCSNMIDEIITHLKQPPLPLLDFNNLNGEDQDILMENNLRRPNLEAFNRAVKSLQNASAIESILKNLLPCLPLATAAPTRHPIHIKDLDEFRRKLTFYLKTLENAQAQQ
B12: pMON5970 (Met-15-125hIL-3) having an M5 substitution (ligand)
chain: B3 chain with E23D, P24F, E25N, L26N, K27L, I34S, M36R, E37N, N38K, N39S
B13: pMON5974 (Met-15-125hIL-3 del aa29-35) having the M2 deletion shown in FIG. 19 (ligand)
chain: MNCSNMIDEIITHLKDFNNLNGEDQDILMENNLRRPNLEAFNRAVKSLQNASAIESILKNLLPCLPLATAAPTRHPIHIKDGDWNEFRRKLTFYLKTLENAQAQQ
B14: pMON5973 (Met-15-125hIL-3) having an M7 substitution (ligand)
chain: MNCSNMIDEIITHLKQPPLPLLDFNNLNGEDQDILMENNLRRPNLEAFNRSQGEVDNASAIESILKNLLPCLPLATAAPTRHPIHIKDGDWNEFRRKLTFYLKTLENAQAQQ

How the values were obtained:
IL-3 receptor (human) [1] = target: IL-3 receptor (human) (UniProt P26951)
IL-3 receptor (human) [2] = target: IL-3 receptor (human) (UniProt P26951); experiment: competition with iodinated hIL-3 ligand (pMON 5966) on AML 193 1.3.9 cells
IL-3 receptor (human) [3] = target: IL-3 receptor (human) (UniProt P26951); experiment: competition with iodinated hIL-3 ligand (pMON 5966) on AML 193 1.3.9 cells; this is the reference itself
IL-3 receptor [4] = target: T1, IL-3 receptor; experiment: competition with iodinated hIL-3 ligand (pMON 5966) on AML 193 1.3.9 cells
Description: These cells were further selected using biotin conjugated hIL-3 and FITC-avidin for repetitive fluorescence activated cell sorting (FACS) and were designated AML 193 1.3.9. This line was grown in IMDM supplemented with 5% FBS and 40 μM beta-mercaptoethanol and human IL-3 (1 to 4 ng/mL). The HL-60 cell line was obtained from ATCC and grown in RPMI 1640, 10% FBS and 40 μM beta-mercaptoethanol. Ligand for IL-3 receptor assays was derived from an E. coli expression vector encoding full length hIL-3 molecule (amino acids 1 to 133) having a 14 amino acid N-terminal extension. ([…][SEQ ID NO: 119]; designated as pMON 5966, est. MW 16,976). This construct contained two additional tyrosines which were essential for iodination to high-specific radioactivity without loss of biological activity. This ligand was radiolabeled with iodine-125 using an insoluble lactoperoxidase method (®Enzymobeads) and used following HPLC purification. […] Ligand for GM-CSF receptor assays was prepared by radiolabelling native GM-CSF with iodine-125 using the IODO-GEN method (Pierce Chemical) according to manufacturer's specifications.
For IL-3 receptor assays, AML 193 1.3.9 cells were incubated overnight in medium without growth factor. On the day of the assay the cells were washed 3 times with Hanks balanced salt solution, resuspended in assay buffer (IMDM, 5% FBS, 40 μM 2-ME and 0.1% BSA) and counted using a hemacytometer. Assay tubes contained the test compounds or inhibitors under study, 0.2% sodium azide, iodinated hIL-3 ligand (pMON 5966), 5–10×10^6 cells, and buffer in a total volume of 100 μL. Unlabelled hIL-3 (250 nM) was used to define non-specific binding, and each assay point was set up in triplicate. After incubation with gentle orbital agitation at 200 rpm for two hours at room temperature, 1 mL of ice-cold medium was added and the binding reaction was immediately terminated by centrifugation. The supernatant was removed by aspiration, and the tip of the tube containing the cell pellet was cut off and counted in a Micromedic gamma counter.

IL-3 receptor [5] = target: T1, IL-3 receptor; experiment: cell-based or functional assay

Binder	Growth Factor Activity (AML 193 1.3 proliferation, 3H-thymidine; Relative Biological Activity) (relative to native hIL-3) (IL-3 receptor (human) [1])	Leukotriene Stimulating Activity (IL-3 mediated sulfidoleukotriene release from human mononuclear cells; Relative Biological Activity) (relative to native hIL-3) (IL-3 receptor (human) [1])	IL-3 Receptor Binding Activity (relative to native hIL-3) (relative to native hIL-3) (IL-3 receptor (human) [2])	IL-3 Receptor Binding Activity (relative to native hIL-3) (relative to native hIL-3) (IL-3 receptor (human) [3])	IL-3 Receptor Binding Activity (relative to native hIL-3) (IL-3 receptor [4])	binding result (IL-3 receptor [4])	Growth Factor Activity (AML 193 1.3 proliferation, 3H-thymidine; Relative Biological Activity) (IL-3 receptor [5])	Leukotriene Stimulating Activity (IL-3 mediated sulfidoleukotriene release from human mononuclear cells; Relative Biological Activity) (IL-3 receptor [5])
B1	0.2	0.15	0.08	–	–	–	–	–
B2	0.04	< 0.01	< 0.01	–	–	–	–	–
B3	3.98	0.31	0.19	–	–	–	–	–
B4	0.03	< 0.01	< 0.01	–	–	–	–	–
B5	1	1	–	1	–	–	–	–
B6	7.94	0.46	–	–	1.21 relative to native hIL-3	–	–	–
B7	0.13	0.1	< 0.01	–	–	–	–	–
B8	0.5	3.63	1.05	–	–	–	–	–
B9	1.26	10.7	0.81	–	–	–	–	–
B10	5.01	12.9	1.32	–	–	–	–	–
B11	0.06	0.59	–	–	0.25 relative to native hIL-3	–	–	–
B12	0.04	< 0.01	< 0.01	–	–	–	–	–
B13	0.08	< 0.01	–	–	≤ 0.01 relative to native hIL-3	no binding	–	–
B14	–	–	–	–	–	–	0.2 relative to native hIL-3	≤ 0.01 relative to native hIL-3
